B1: hIL-6Rα on hIL-6Rα-transfected HEK293T cells (receptor)
chain: LAPRRCPAQEVARGVLTSLPGDSVTLTCPGVEPEDNATVHWVLRKPAAGSHPSRWAGMGRRLLLRSVQLHDSGNYSCYRAGRPAGTVHLLVDVPPEEPQLSCFRKSPLSNVVCEWGPRSTPSLTTKAVLLVRKFQNSPAEDFQEPCQYSQESQKFSCQLAVPEGDSSFYIVSMCVASSVGSKFSKTQTFQGCGILQPDPPANITVTAVARNPRWLSVTWQDPHSWNSSFYRLRFELRYRAERSKTFTTWMVKDLQHHCVIHDAWSGLRHVVQLRAQEEFGQGEWSEWSPEAMGTPWTESRSPPAENEVSTPMQALTTNKDDDNILFRDSANATSLPVQDSSSVPLPTFLVAGGSLAFGTLLCIAIVLRFKKTWKLRALKEGKTSMHPPYSLGQLVPERPRPTPVLVPLISPPVSPSSLGSDNTSSHNRPDARDPRSPYDISNTDYFFPR
A word on the Kd: it is the constant that tells how readily two partners part at equilibrium. Higher therefore signals a looser complex. B1: the figures for the Kd with NEF172, in the assay with NEF163 and with NEF108 were 10.9 nM, 3.5 nM and 5.3 nM, respectively.

The record behind these values is article PMC11075285 (2024).
